In patent publication US20230192890A1:
Where a chain is given by its changes, count along the chain named. Each block holds one binder with its values, some of them ahead of it.

Key:
[1] = target: T1, Ala mutant SEQ ID NO: 27 (human); experiment: ELISA, peptide on plate (10 ug/mL)
T1 sequence (peptide): AENMDDQWMQDEMEIGY

[2] = target: T2, Ala mutant SEQ ID NO: 28 (human); experiment: ELISA, peptide on plate (10 ug/mL)
T2 sequence (peptide): EANMDDQWMQDEMEIGY

[3] = target: T3, Ala mutant SEQ ID NO: 29 (human); experiment: ELISA, peptide on plate (10 ug/mL)
T3 sequence (peptide): EEAMDDQWMQDEMEIGY

[4] = target: T4, Ala mutant SEQ ID NO: 30 (human); experiment: ELISA, peptide on plate (10 ug/mL)
T4 sequence (peptide): EENADDQWMQDEMEIGY

[5] = target: T5, Ala mutant SEQ ID NO: 31 (human); experiment: ELISA, peptide on plate (10 ug/mL)
T5 sequence (peptide): EENMADQWMQDEMEIGY

[6] = target: T6, Ala mutant SEQ ID NO: 32 (human); experiment: ELISA, peptide on plate (10 ug/mL)
T6 sequence (peptide): EENMDAQWMQDEMEIGY

[7] = target: T7, Ala mutant SEQ ID NO: 33 (human); experiment: ELISA, peptide on plate (10 ug/mL)
T7 sequence (peptide): EENMDDAWMQDEMEIGY

[8] = target: T8, Ala mutant SEQ ID NO: 36 (human); experiment: ELISA, peptide on plate (10 ug/mL)
T8 sequence (peptide): EENMDDQWMADEMEIGY

[9] = target: T9, Ala mutant SEQ ID NO: 37 (human); experiment: ELISA, peptide on plate (10 ug/mL)
T9 sequence (peptide): EENMDDQWMQAEMEIGY

[10] = target: T10, Ala mutant SEQ ID NO: 38 (human); experiment: ELISA, peptide on plate (10 ug/mL)
T10 sequence (peptide): EENMDDQWMQDAMEIGY

[11] = target: T11, Ala mutant SEQ ID NO: 39 (human); experiment: ELISA, peptide on plate (10 ug/mL)
T11 sequence (peptide): EENMDDQWMQDEAEIGY

[12] = target: T12, Ala mutant SEQ ID NO: 40 (human); experiment: ELISA, peptide on plate (10 ug/mL)
T12 sequence (peptide): EENMDDQWMQDEMAIGY

[13] = target: T13, Ala mutant SEQ ID NO: 41 (human); experiment: ELISA, peptide on plate (10 ug/mL)
T13 sequence (peptide): EENMDDQWMQDEMEAGY

[14] = target: T14, Ala mutant SEQ ID NO: 42 (human); experiment: ELISA, peptide on plate (10 ug/mL)
T14 sequence (peptide): EENMDDQWMQDEMEIAY

[15] = target: T15, Ala mutant SEQ ID NO: 43 (human); experiment: ELISA, peptide on plate (10 ug/mL)
T15 sequence (peptide): EENMDDQWMQDEMEIGA

[16] = target: T16, Ala mutant having 3-amino acid substitution, SEQ ID NO: 44 (human); experiment: ELISA, peptide on plate (10 ug/mL)
T16 sequence (peptide): AAAMDDQWMQDEMEIGY

[17] = target: T17, Ala mutant having 3-amino acid substitution, SEQ ID NO: 47 (human); experiment: ELISA, peptide on plate (10 ug/mL)
T17 sequence (peptide): EENMDDQWMAAAMEIGY

[18] = target: T18, Ala mutant having 3-amino acid substitution, SEQ ID NO: 48 (human); experiment: ELISA, peptide on plate (10 ug/mL)
T18 sequence (peptide): EENMDDQWMQDEAAAGY

[19] = target: T19, Ala mutant having 3-amino acid substitution, SEQ ID NO: 49 (human); experiment: ELISA, peptide on plate (10 ug/mL)
T19 sequence (peptide): EENMDDQWMQDEMEIAA

[20] = target: T20, TA0096 (peptide antigen corresponding to positions 340 to 356 of PAD4) (human); experiment: ELISA, peptide on plate (10 ug/mL)
T20 sequence (peptide): EENMDDQWMQDEMEIGY

[21] = target: full-length recombinant mouse PAD4 (mouse) (UniProt Q9Z183); experiment: ELISA, mouse PAD4 on plate, antibody 1 ug/mL
[22] = target: full-length recombinant mouse PAD4 (mouse) (UniProt Q9Z183); experiment: ELISA, mouse PAD4 on plate, antibody 0.25 ug/mL
[23] = target: full-length recombinant mouse PAD4 (mouse) (UniProt Q9Z183); experiment: ELISA, mouse PAD4 on plate, antibody 0.0625 ug/mL
[24] = target: full-length recombinant mouse PAD4 (mouse) (UniProt Q9Z183); experiment: ELISA, mouse PAD4 on plate, antibody 0.015625 ug/mL
[25] = target: full-length recombinant mouse PAD4 (mouse) (UniProt Q9Z183); experiment: ELISA, mouse PAD4 on plate, antibody 0.0002441 ug/mL
[26] = target: full-length recombinant mouse PAD4 (mouse) (UniProt Q9Z183); experiment: ELISA, mouse PAD4 on plate, antibody 0.0009766 ug/mL
[27] = target: full-length recombinant mouse PAD4 (mouse) (UniProt Q9Z183); experiment: ELISA, mouse PAD4 on plate, antibody 0.0039063 ug/mL
[28] = target: full-length recombinant mouse PAD4 (mouse) (UniProt Q9Z183); experiment: ELISA, mouse PAD4 on plate, antibody 6.104E-05 ug/mL

full-length recombinant mouse PAD4 (mouse), sequence (Q9Z183 whole entry): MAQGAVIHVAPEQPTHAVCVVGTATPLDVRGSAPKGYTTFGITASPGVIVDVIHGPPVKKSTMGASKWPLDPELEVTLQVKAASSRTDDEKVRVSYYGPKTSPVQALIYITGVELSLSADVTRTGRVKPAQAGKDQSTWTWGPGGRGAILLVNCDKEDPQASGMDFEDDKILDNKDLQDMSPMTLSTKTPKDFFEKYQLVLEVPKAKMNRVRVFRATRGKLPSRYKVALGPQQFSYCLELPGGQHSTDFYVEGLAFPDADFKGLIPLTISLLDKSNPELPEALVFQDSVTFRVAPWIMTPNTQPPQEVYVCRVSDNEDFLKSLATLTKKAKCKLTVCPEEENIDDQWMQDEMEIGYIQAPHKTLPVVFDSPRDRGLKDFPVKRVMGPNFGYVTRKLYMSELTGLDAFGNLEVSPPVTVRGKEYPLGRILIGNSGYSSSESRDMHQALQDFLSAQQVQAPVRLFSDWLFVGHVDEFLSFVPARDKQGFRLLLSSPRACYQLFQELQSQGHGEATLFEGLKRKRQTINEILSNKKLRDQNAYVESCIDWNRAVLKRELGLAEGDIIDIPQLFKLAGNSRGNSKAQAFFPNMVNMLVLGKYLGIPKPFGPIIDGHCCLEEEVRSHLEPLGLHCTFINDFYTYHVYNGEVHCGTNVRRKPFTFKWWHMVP

- absorbance 490 nm/630 nm [1]: 1.95 OD
- absorbance 490 nm/630 nm [2]: 2 OD
- absorbance 490 nm/630 nm [3]: 2.05 OD
- absorbance 490 nm/630 nm [4]: 2.03 OD
- absorbance 490 nm/630 nm [5]: 1.67 OD
- absorbance 490 nm/630 nm [6]: 0.628 OD
- absorbance 490 nm/630 nm [7]: 2.09 OD
- absorbance 490 nm/630 nm [8]: 1.91 OD
- absorbance 490 nm/630 nm [9]: 1.8 OD
- absorbance 490 nm/630 nm [10]: 1.89 OD
- absorbance 490 nm/630 nm [11]: 1.89 OD
- absorbance 490 nm/630 nm [12]: 1.85 OD
- absorbance 490 nm/630 nm [13]: 1.85 OD
- absorbance 490 nm/630 nm [14]: 1.88 OD
- absorbance 490 nm/630 nm [15]: 1.92 OD
- absorbance 490 nm/630 nm [16]: 1.98 OD
- absorbance 490 nm/630 nm [17]: 1.25 OD
- absorbance 490 nm/630 nm [18]: 1.87 OD
- absorbance 490 nm/630 nm [19]: 1.89 OD
- absorbance 490 nm/630 nm [20]: 1.81 OD
- absorbance 490 nm/630 nm [21]: 2.24 OD
- absorbance 490 nm/630 nm [22]: 2.25 OD
- absorbance 490 nm/630 nm [23]: 2.24 OD
- absorbance 490 nm/630 nm [24]: 2.02 OD
- absorbance 490 nm/630 nm [25]: 0.152 OD
- absorbance 490 nm/630 nm [26]: 0.386 OD
- absorbance 490 nm/630 nm [27]: 1.07 OD
- absorbance 490 nm/630 nm [28]: 0.045 OD
B1: A11 (antibody, IgG1, V domains shown)
VH: AVTLDESGGGLQTPGGALSLVCKASGFDFSSYGMGWMRQAPGKGLEYVAAIRNDGSWTGYGAAVKGHATISRDNGQSTVRLQLNNLRAEDTGTYYCAKTTGSRGGSIDAWGHGTEVIVS
VL: ASTQPSSVSANLGGTVEITCSGGGRYYYGWYQQKSPGSAPVTVIYANDKRPSDIPSRFSGSKSGSTGTLTITGVQAEDEAVYFCGSAETSSYVFGAGTTLTVL

- absorbance 490 nm/630 nm [1]: 1.89 OD
- absorbance 490 nm/630 nm [2]: 2 OD
- absorbance 490 nm/630 nm [3]: 1.92 OD
- absorbance 490 nm/630 nm [4]: 1.91 OD
- absorbance 490 nm/630 nm [5]: 1.38 OD
- absorbance 490 nm/630 nm [6]: 0.177 OD
- absorbance 490 nm/630 nm [7]: 1.93 OD
- absorbance 490 nm/630 nm [8]: 1.9 OD
- absorbance 490 nm/630 nm [9]: 1.2 OD
- absorbance 490 nm/630 nm [10]: 1.91 OD
- absorbance 490 nm/630 nm [11]: 1.77 OD
- absorbance 490 nm/630 nm [12]: 1.82 OD
- absorbance 490 nm/630 nm [13]: 1.8 OD
- absorbance 490 nm/630 nm [14]: 1.83 OD
- absorbance 490 nm/630 nm [15]: 1.88 OD
- absorbance 490 nm/630 nm [16]: 1.9 OD
- absorbance 490 nm/630 nm [17]: 1.34 OD
- absorbance 490 nm/630 nm [18]: 1.81 OD
- absorbance 490 nm/630 nm [19]: 1.85 OD
- absorbance 490 nm/630 nm [20]: 1.79 OD
- absorbance 490 nm/630 nm [21]: 2.23 OD
- absorbance 490 nm/630 nm [22]: 2.23 OD
- absorbance 490 nm/630 nm [23]: 2.19 OD
- absorbance 490 nm/630 nm [24]: 1.86 OD
- absorbance 490 nm/630 nm [25]: 0.122 OD
- absorbance 490 nm/630 nm [26]: 0.416 OD
- absorbance 490 nm/630 nm [27]: 0.956 OD
- absorbance 490 nm/630 nm [28]: 0.051 OD
B2: E9 (antibody, IgG1, V domains shown)
VH: B1 VH with A17T, A24G, D28T, A62S, H67R, G92A, T100S, R103S, I107V
VL: B1 VL

- absorbance 490 nm/630 nm [1]: 1.91 OD
- absorbance 490 nm/630 nm [2]: 1.99 OD
- absorbance 490 nm/630 nm [3]: 1.95 OD
- absorbance 490 nm/630 nm [4]: 1.92 OD
- absorbance 490 nm/630 nm [5]: 1.77 OD
- absorbance 490 nm/630 nm [7]: 1.98 OD
- absorbance 490 nm/630 nm [8]: 1.85 OD
- absorbance 490 nm/630 nm [9]: 1.85 OD
- absorbance 490 nm/630 nm [10]: 1.92 OD
- absorbance 490 nm/630 nm [11]: 1.83 OD
- absorbance 490 nm/630 nm [12]: 1.86 OD
- absorbance 490 nm/630 nm [13]: 1.87 OD
- absorbance 490 nm/630 nm [14]: 1.87 OD
- absorbance 490 nm/630 nm [15]: 1.87 OD
- absorbance 490 nm/630 nm [16]: 1.92 OD
- absorbance 490 nm/630 nm [17]: 1.73 OD
- absorbance 490 nm/630 nm [18]: 1.85 OD
- absorbance 490 nm/630 nm [19]: 1.88 OD
- absorbance 490 nm/630 nm [20]: 1.87 OD
- absorbance 490 nm/630 nm [21]: 2.27 OD
- absorbance 490 nm/630 nm [22]: 2.27 OD
- absorbance 490 nm/630 nm [23]: 2.16 OD
- absorbance 490 nm/630 nm [24]: 1.35 OD
- absorbance 490 nm/630 nm [25]: 0.071 OD
- absorbance 490 nm/630 nm [26]: 0.2 OD
- absorbance 490 nm/630 nm [27]: 0.55 OD
- absorbance 490 nm/630 nm [28]: 0.044 OD
B3: G6 (antibody, IgG1, V domains shown)
VH: B1 VH with D28T, G35E, M37V, H67R, N74D, V79L, G92A, R103S
VL: B1 VL with G14E, E17K, R25N, V43L, D53N, S86T, E88D, S90G, S91K
